Changes are numbered by the printed parent chain.
B1: Fab-2913: anti-FZD5 Fab with antibody variable region Fv-2913; CDR SEQ ID NOs: 35, 36, 52, 91, 128, 165 (antibody, V domains shown)
VH: EVQLVESGGGLVQPGGSLRLSCAASGFNISYSSIHWVRQAPGKGLEWVASIYPYSSSTSYADSVKGRFTISADTSKNTAYLQMNSLRAEDTAVYYCARYGYYGLDYWGQGTLVTVSS
VL: DIQMTQSPSSLSASVGDRVTITCRASQSVSSAVAWYQQKPGKAPKLLIYSASSLYSGVPSRFSGSRSGTDFTLTISSLQPEDFATYYCQQWGVSHYLFTFGQGTKVEIK
B2: Fab-2910: anti-FZD5 Fab with antibody variable region Fv-2910; CDR SEQ ID NOs: 35, 36, 49, 88, 125, 162 (antibody, V domains shown)
VH: EVQLVESGGGLVQPGGSLRLSCAASGFNISYSYMHWVRQAPGKGLEWVASIYSSSSSTSYADSVKGRFTISADTSKNTAYLQMNSLRAEDTAVYYCARGAMDYWGQGTLVTVSS
VL: DIQMTQSPSSLSASVGDRVTITCRASQSVSSAVAWYQQKPGKAPKLLIYSASSLYSGVPSRFSGSRSGTDFTLTISSLQPEDFATYYCQQWYGSHLITFGQGTKVEIK
B3: Fab-2912: anti-FZD5 Fab with antibody variable region Fv-2912; CDR SEQ ID NOs: 35, 36, 51, 90, 127, 164 (antibody, V domains shown)
VH: EVQLVESGGGLVQPGGSLRLSCAASGFNISYSYIHWVRQAPGKGLEWVASISSSSGYTSYADSVKGRFTISADTSKNTAYLQMNSLRAEDTAVYYCARTVRGSKKPYFSGWAMDYWGQGTLVTVSS
VL: B2 VL with W91F, G93F, S94P, H95Y
B4: Fab-2914: anti-FZD5 Fab with antibody variable region Fv-2914; CDR SEQ ID NOs: 35, 36, 53, 92, 129, 162 (antibody, V domains shown)
VH: B2 VH with S30Y, S53P
VL: B2 VL with G93Y, S94G, H95S
B5: Fab-2911: anti-FZD5 Fab with antibody variable region Fv-2911; CDR SEQ ID NOs: 35, 36, 50, 89, 126, 163 (antibody, V domains shown)
VH: EVQLVESGGGLVQPGGSLRLSCAASGFNIYYSSMHWVRQAPGKGLEWVAYIYPYSGYTSYADSVKGRFTISADTSKNTAYLQMNSLRAEDTAVYYCARYFWWYGFDYWGQGTLVTVSS
VL: DIQMTQSPSSLSASVGDRVTITCRASQSVSSAVAWYQQKPGKAPKLLIYSASSLYSGVPSRFSGSRSGTDFTLTISSLQPEDFATYYCQQGPWYPFTFGQGTKVEIK

Legend:
FZD10 CRD = molecular target: T1, FZD10 CRD (Homo sapiens, UniProt Q9ULW2); assay: Immunofluorescence of anti-FZD5 Fab binding to CHO cells overexpressing Frizzled CRD; set-up: key: −: no binding; +: very weak binder; ++: weak binder; +++: good binder; ++++: very good binder
T1 construct: 30-156; GPI anchor signal (C); expressed in transfected cells; host or cells: CHO cells, lentiviral pLenti-puro
T1 sequence (Q9ULW2 30-156): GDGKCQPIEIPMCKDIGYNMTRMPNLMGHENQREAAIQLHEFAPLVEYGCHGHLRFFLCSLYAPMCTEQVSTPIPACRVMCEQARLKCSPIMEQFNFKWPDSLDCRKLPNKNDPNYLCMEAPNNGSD
Procedure: (§1) Plasmids: pLCKO lentiviral vector used for knockout (TKO) library construction and expression of individual gRNAs was constructed as described previously (Hart et al., 2015). Briefly, single guide RNA (sgRNA) scaffold was amplified from px330 (Addgene 42230) and cloned into pLKO.TRC005 lentiviral vector (Broad Institute, Cambridge, Mass.) using AgeI/EcoRI restriction sites. BfuAI sites were added at the 5′ end of the sgRNA scaffold for cloning the TKO library or individual gRNA target sequences. Lenti Cas9-2A-BsdR vector used to generate Cas9 stable expression cell lines was constructed as described previously (Hart et al., 2015). Briefly, lentiCRISPR pXPR_001 (Addgene 49535) was modified through removal of the sgRNA scaffold region through NdeI/EcoRI digest and blunt ends generation using Large Klenow Fragment (NEB). 2A-puro was replaced with 2A-BsdR by PCR using the NheI/MluI sites. Each of the 10 human Frizzled cysteine rich domains (CRDs) were cloned into the lentiviral expression plasmid pLenti-puro in the following cassette: FZD_CRD-MYC-GPI.
(§2) To confirm that the FZD5-WNT7B circuit is not driven simply by expression and rule out the possibility of a disconnect between RNA and protein levels for the Wnt receptors in HPAF-II cells, a panel of recombinant Fabs were generated, alternatively referred to herein as ‘Frizzled profiler’, that can detect and discriminate all but one of the ten Frizzled receptors. […] To characterize the binding specificity of these Fabs on cells, a panel of 10 CHO cell lines was generated, each expressing the CRD domain of a different myc-tagged Frizzled family member anchored at the plasma membrane through a GPI anchor (CHO-myc-FZDGPI). Despite the high sequence identity between Frizzled family members (FIG. 7A, FIG. 7B), selective Fabs were identified for FZD4, FZD5, FZD6 and FZD10 as assessed by immunofluorescence and flow cytometry (FIG. 7D and FIG. 8). […] The FZD8 CRD is most homologous to that of FZD5 (FIG. 7B). These Fabs can be used to discriminate expression of FZD1, FZD2, FZD4, FZD5, FZD6, FZD7, FZD8, FZD9 and FZD10 (FIG. 7D and FIG. 8). The ‘Frizzled profiler’ therefore consists of 10 different Fabs that can be used to discriminate expression of 9 different Frizzled family members. The Frizzled profiler was then used to confirm that HPAF-II cells express FZD1, FZD5, FZD6 and possibly FZD8 (FIG. 7E).
(§3) The binding of anti-FZD5 Fabs to cell surface-expressed Frizzled protein was further determined for each member of the Frizzled family via flow cytometry and immunofluorescence analysis of a panel of 10 CHO cell lines, each ectopically over-expressing the extracellular cysteine-rich domain (CRD) of a different Frizzled protein family member.

FZD3 CRD = molecular target: T2, FZD3 CRD (Homo sapiens, UniProt Q9NPG1); assay: as above; set-up: key: −: no binding; +: very weak binder; ++: weak binder; +++: good binder; ++++: very good binder
T2 construct: CRD of FZD1, FZD2, FZD3, FZD4, FZD5, FZD6, FZD7, FZD8, FZD9 or FZD10; GPI anchor signal (C); expressed in transfected cells; host or cells: CHO cells, lentiviral pLenti-puro
T2 sequence (Q9NPG1 23-136 limits assumed): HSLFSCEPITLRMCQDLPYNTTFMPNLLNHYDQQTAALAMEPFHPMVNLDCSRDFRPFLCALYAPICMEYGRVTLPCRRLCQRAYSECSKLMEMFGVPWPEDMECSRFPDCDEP
Procedure: as §1, §2, §3

FZD4 CRD = molecular target: T3, FZD4 CRD (Homo sapiens, UniProt Q9ULV1); assay: as above; set-up: key: −: no binding; +: very weak binder; ++: weak binder; +++: good binder; ++++: very good binder
T3 construct: E42-V167; GPI anchor signal (C); expressed in transfected cells; host or cells: CHO cells, lentiviral pLenti-puro
T3 sequence (Q9ULV1 42-167): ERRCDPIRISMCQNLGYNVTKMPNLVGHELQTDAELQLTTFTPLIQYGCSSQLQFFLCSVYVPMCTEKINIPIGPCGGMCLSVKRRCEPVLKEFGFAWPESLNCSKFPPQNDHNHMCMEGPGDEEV
Procedure: as §1, §2, §3

FZD5 CRD = molecular target: T4, FZD5 CRD (Homo sapiens, UniProt Q13467); assay: as above; set-up: key: −: no binding; +: very weak binder; ++: weak binder; +++: good binder; ++++: very good binder
T4 construct: K29-T156; GPI anchor signal (C); expressed in transfected cells; host or cells: CHO cells, lentiviral pLenti-puro
T4 sequence (Q13467 29-156): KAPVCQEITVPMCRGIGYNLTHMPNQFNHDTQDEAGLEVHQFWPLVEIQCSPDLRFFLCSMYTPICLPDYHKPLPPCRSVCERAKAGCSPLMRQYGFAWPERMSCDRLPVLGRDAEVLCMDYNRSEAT
Procedure: as §1, §2, §3

FZD6 CRD = molecular target: T5, FZD6 CRD (Homo sapiens, UniProt O60353); assay: as above; set-up: key: −: no binding; +: very weak binder; ++: weak binder; +++: good binder; ++++: very good binder
T5 construct: S20-P146; GPI anchor signal (C); expressed in transfected cells; host or cells: CHO cells, lentiviral pLenti-puro
T5 sequence (O60353 20-146): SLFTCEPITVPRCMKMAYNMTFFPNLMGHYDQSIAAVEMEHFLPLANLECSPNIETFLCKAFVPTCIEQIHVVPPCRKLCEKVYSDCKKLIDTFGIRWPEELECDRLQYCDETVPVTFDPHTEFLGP
Procedure: as §1, §2, §3

FZD8 CRD = molecular target: T6, FZD8 CRD (Homo sapiens, UniProt Q9H461); assay: as above; set-up: key: −: no binding; +: very weak binder; ++: weak binder; +++: good binder; ++++: very good binder
T6 construct: K31-D155; GPI anchor signal (C); expressed in transfected cells; host or cells: CHO cells, lentiviral pLenti-puro
T6 sequence (Q9H461 31-155): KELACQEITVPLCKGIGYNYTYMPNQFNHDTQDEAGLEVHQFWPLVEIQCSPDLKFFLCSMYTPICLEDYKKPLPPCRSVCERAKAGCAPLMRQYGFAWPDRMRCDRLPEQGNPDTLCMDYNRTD
Procedure: as §1, §2, §3

ASPC-1 cells = assay: Effect of anti-FZD5 Fabs on proliferation of pancreatic cancer cell lines (percent growth inhibition); assay type: cell-based, human; settings: Fab 2 μg/ml
RWP1 cells = assay: as above; assay type: cell-based, human; settings: Fab 2 μg/ml

| Molecule | Immunofluorescence binding, Frizzled CRD overexpressed on CHO cells: FZD10 (FZD10 CRD) | Immunofluorescence binding, Frizzled CRD overexpressed on CHO cells: FZD3 (FZD3 CRD) | Immunofluorescence binding, Frizzled CRD overexpressed on CHO cells: FZD4 (FZD4 CRD) | Immunofluorescence binding, Frizzled CRD overexpressed on CHO cells: FZD5 (FZD5 CRD) | Immunofluorescence binding, Frizzled CRD overexpressed on CHO cells: FZD6 (FZD6 CRD) | Immunofluorescence binding, Frizzled CRD overexpressed on CHO cells: FZD8 (FZD8 CRD) | percent growth inhibition, ASPC-1 2 μg/ml (ASPC-1 cells) [%] | percent growth inhibition, RWP1 2 μg/ml (RWP1 cells) [%] |
| --- | --- | --- | --- | --- | --- | --- | --- | --- |
| B1 | − | − | − | ++ | − | − | 2.25 | 59.79 |
| B2 | − | − | − | ++++ | − | − | 39.05 | 71.49 |
| B3 | − | − | ++ | +++ | − | + | 6.93 | 15.55 |
| B4 | − | − | − | ++++ | − | ++ | 16.76 | 68.03 |
| B5 | − | − | − | ++ | − | − | 3.18 | 20.34 |

— patent US20210253718A1, “FRIZZLED5 PROTEIN-BINDING AGENTS” (Modmab Therapeutics Corporation, priority 2016, published 2021)
